B1: TMEM175 (parent)
chain: SCTIIFLASIFQLAMWTTALLHQA
B2: ADD1 (parent)
chain: GEGTGSPPKWQIGEQEFEALMRML

Variants of: B1
Experiment: protein stability index of a GFP-peptide fusion (GPS, HEK-293T) (PSI 1-6); higher = more stable
Conditions: c terminus: a fixed tail appended
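Further: lentivirally expressed fusions sorted by FACS into six bins by GFP to DsRed ratio, PSI derived from sequencing read proportions per bin multiplied by bin number.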

Protein stability index, by site and new letter:
L13: S 3.46; D 2.59; Y 2.81; Q 3.08; P 2.24; F 3.07; N 3.15; I 2.5; T 2.49; E 2.24; A 2.85; R 1.63
Q23: P 3; W 3.32; E 2.09; T 3.34; I 2.95; N 4.37; K 3.26; S 3.77; M 3.84; F 3.89; H 2.71; V 3.24; G 4.5
W16: Y 3.76; L 2.94; P 2.53; V 3.96; M 3.11; A 3.29; N 3.23; F 1.76; S 2.58; I 3.15; Q 1.12; H 1.8; K 2.44
A8: D 3.72; F 3.99; L 3.28; Q 3.65; V 2.62; P 2.84; I 4.22; H 3.28; S 3; E 2.8; Y 3.74; T 4.12; N 4.58; K 3.08; C 2.98
L20: F 2.74; G 1.94; A 3.09; H 3.02; S 3.1; Y 3.22; N 3.09; P 1.81; D 3.05; M 3.22; W 1.4; Q 3.1
I4: K 3.01; P 4.19; H 3.04; V 2.35; T 2.72; N 3; A 3.22; D 3.54; W 2.14; G 2.7
C2: L 2.87; F 2.66; K 3.34; D 3.24; M 2.59; E 2.64; R 2.3; P 1.95; Y 2.89; Q 2.54; H 3.33; G 3.98; V 3.64
I5: T 2.35; A 2.65; M 3.44; F 2.81; N 2.28; L 1.46; H 3.05; P 2.58; G 2.33; K 2.92; R 1.6
A24: I 3.19; L 3.17; F 2.62; K 2.88; V 1.5; Q 2.56; T 3.01; M 1.89; Y 2.61; R 2.43; S 1.55; E 3.22
S1: Q 1.64; G 2.3; R 4.91; W 2.14; T 2.86; H 2.8; M 2.14; I 3.24; K 2.29; D 2.62; E 1.31; C 3.31; L 2.96; Y 1.75
T18: H 2.85; L 2.73; S 3.06; D 2.18; F 3.03; Y 2.68; A 2.23; E 2.78; K 2.31; R 2.09
H22: W 3.14; G 3.04; P 3; N 2.87; Y 2.5; R 2.5; F 2.6; A 3.84; K 3.44; Q 2.97; M 2.74; T 2.65; V 3.39; L 1.86; C 3.02

Variants of: B2
Experiment: as above
Conditions: c terminus: a fixed tail appended

Protein stability index, by site and new letter:
L24: F 3.42; E 4.98; Q 4.74; R 4.34; V 3.06; D 4.89; P 4.38; W 3.57; Y 2.68; S 3.92; K 4.67; T 3.8; I 3.52; G 4.1; N 4.13; M 3.89; H 4.32
